In the supplement of paper PMC6757056:
± gives the standard deviation of the averaged measurements.

B1: library; a variant is named by its letters at N, in order (parent)
chain: GCUGUCACCGGUGCUUGGUACGUUAUAUUCAGCCGGUCUGAUGAGUCUNNNNNNAGACGAAACAGC

Columns and labels:
(6R,S)-folinic acid [1] = variants of: B1; assay: FACS-Seq fitted mean relative fluorescence mCherry/BFP without ligand (log10 relative fluorescence); HEK293T overexpressing SLC46A1; higher = higher reporter protein expression; settings: without (6R,S)-folinic acid; ligand present: no
How it was run: (§1)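 Cells were sorted into 6 bins on the mCherry/BFP ratio after 48 h with or without ligand. These were enriched HEK293T cells transduced by lentivirus with a ribozyme-switch mCherry reporter plus an EF1α-BFP marker. Fluorescence was obtained by fitting a normal distribution to sequencing-derived bin counts. Counts came from MiSeq sequencing of PCR-amplified, barcoded genomic DNA, binned by log10(mCherry/BFP), with means scaled to five spiked-in control ribozymes.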

(6R,S)-folinic acid [2] = variants of: B1; assay: normalized RNA/DNA level without ligand (relative to sTRSVctl = 100) (log10 (% of sTRSVctl)); HEK293T overexpressing SLC46A1; higher = less ribozyme self-cleavage, higher mRNA level; settings: without (6R,S)-folinic acid; ligand present: no
How it was run: (§2)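 HEK293T cells received ligand, where used, 1 h before being transfected with 4 µg per 6-well well of library plasmids encoding reporter-linked ribozyme switches. After 72 h, RNA was extracted with EDTA and sequenced. RNA level was derived from RNA reads per DNA read, normalized to a spiked-in non-cleaving sequence or the top sequences, then scaled and log-transformed. Values were ×100 then log10, the top set was 25 sequences, and the minimum was 100 DNA reads.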

(6R,S)-folinic acid [3] = variants of: B1; assay: FACS-Seq fitted mean relative fluorescence mCherry/BFP with ligand (log10 relative fluorescence); HEK293T overexpressing SLC46A1; ligand concentration (+) FACS-Seq: 6 mM; higher = higher reporter protein expression; settings: with (6R,S)-folinic acid; ligand present: yes
How it was run: as §1

(6R,S)-folinic acid [4] = variants of: B1; assay: normalized RNA/DNA level with ligand (relative to sTRSVctl = 100) (log10 (% of sTRSVctl)); HEK293T overexpressing SLC46A1; ligand concentration (+) RNA-Seq: 6 mM; higher = less ribozyme self-cleavage, higher mRNA level; settings: with (6R,S)-folinic acid; ligand present: yes
How it was run: as §2

Row | Variant | FACS-Seq fitted mean (log10) ((6R,S)-folinic acid [1]) | normalized RNA/DNA level without ligand (log10) ((6R,S)-folinic acid [2]) | FACS-Seq fitted mean (log10) ((6R,S)-folinic acid [3]) | normalized RNA/DNA level with ligand (log10) ((6R,S)-folinic acid [4])
1 | AUUGAA | 0.561 ± 0.054 | 1.97 ± 0.01 | 0.718 ± 0.079 | 2 ± 0.014
2 | AUUGAG | 0.4944 ± 0.0016 | 1.715 ± 0.01 | 0.969 ± 0.14 | 1.946 ± 0.012
3 | UAACAU | – | 1.956 ± 0.016 | – | 2 ± 0.023
4 | UUUUUG | 0.145 ± 0.073 | 1.855 ± 0.016 | 0.176 ± 0.0085 | 2 ± 0.022
5 | GUUUGU | 0.326 ± 0.024 | 2.03 ± 0.034 | 0.672 ± 0.18 | 2.034 ± 0.014
6 | CUGUAU | 0.306 ± 0.094 | 1.981 ± 0.0073 | 0.479 ± 0.11 | 2 ± 0.021
7 | AUUGCG | 0.231 ± 0.12 | 1.8333 ± 0.00083 | 0.245 ± 0.22 | 2 ± 0.04
8 | CAACGU | – | 2.024 ± 0.0058 | – | 2.037 ± 0.019
9 | CAACGG | – | 1.9202 ± 0.00028 | – | 1.976 ± 0.0039
10 | CAACGC | – | 2.025 ± 0.011 | – | 2.02 ± 0.038
11 | AUUUAC | 0.138 ± 0.029 | 2.001 ± 0.018 | 0.497 ± 0.13 | 2.03 ± 0.026
12 | AUUUAU | 0.207 ± 0.088 | 2.011 ± 0.0041 | 0.186 ± 0.11 | 2.01 ± 0.035
13 | GAACUU | – | 2.002 ± 0.013 | – | 1.98 ± 0.028
14 | GAACUA | – | 1.9884 ± 0.0016 | – | 2 ± 0.055
15 | GAACUG | – | 1.971 ± 0.0088 | – | 1.99 ± 0.028
16 | GAACUC | – | 2.044 ± 0.0052 | – | 2.028 ± 0.012
17 | GUUACC | 0.497 ± 0.022 | 2.047 ± 0.013 | 0.281 ± 0.23 | 2.03 ± 0.026
18 | UUUAAG | 0.386 ± 0.13 | 1.769 ± 0.0025 | 0.698 ± 0.2 | 1.96 ± 0.046
19 | CAAGGU | – | 1.976 ± 0.0082 | – | 1.97 ± 0.024
20 | CAAGGC | – | 1.993 ± 0.019 | – | 1.99 ± 0.035
21 | CUUGUG | 0.147 ± 0.16 | 2.021 ± 0.012 | -0.331 ± 0.28 | 2.02 ± 0.039
22 | CAAAUG | – | 2.007 ± 0.0091 | – | 2.007 ± 0.017
23 | CAAAUA | – | 1.95 ± 0.01 | – | 1.99 ± 0.025

Row | Variant | FACS-Seq fitted mean (log10) ((6R,S)-folinic acid [1]) | normalized RNA/DNA level without ligand (log10) ((6R,S)-folinic acid [2]) | FACS-Seq fitted mean (log10) ((6R,S)-folinic acid [3]) | normalized RNA/DNA level with ligand (log10) ((6R,S)-folinic acid [4])
24 | CAAAUU | – | 2.011 ± 0.0089 | – | 2.03 ± 0.027
25 | CAAAUC | – | 2.05 ± 0.026 | – | 2.02 ± 0.047
26 | AAAUCA | – | 1.996 ± 0.0046 | – | 2.02 ± 0.047
27 | GUGUCA | 0.425 ± 0.12 | 2.008 ± 0.0044 | 0.477 ± 0.009 | 2.03 ± 0.033
28 | UUUCUG | 0.112 ± 0.063 | 1.92 ± 0.0064 | 0.197 ± 0.012 | 2 ± 0.061
29 | GUUGGA | 0.594 ± 0.3 | 1.977 ± 0.013 | 0.154 ± 0.35 | 2.02 ± 0.04
30 | GUUGGU | 0.346 ± 0.21 | 1.98 ± 0.027 | 0.126 ± 0.09 | 2.02 ± 0.029
31 | UUGUUA | 0.514 ± 0.052 | 2.03 ± 0.014 | 0.793 ± 0.16 | 2.07 ± 0.031
32 | GAAUAG | – | 1.9357 ± 0.0015 | – | 2.01 ± 0.042
33 | GAAUAU | – | 2.038 ± 0.015 | – | 2.02 ± 0.051
34 | CAAGCG | – | 2.057 ± 0.015 | – | 2.062 ± 0.0093
35 | CAAGCC | – | 2.099 ± 0.01 | – | 2.03 ± 0.046
36 | AUUGGA | 0.168 ± 0.094 | 1.941 ± 0.0048 | 0.119 ± 0.29 | 2.01 ± 0.038
37 | GAAGCC | – | 2.022 ± 0.0083 | – | 2.03 ± 0.047
38 | GUUCGC | 0.511 ± 0.017 | 2.07 ± 0.024 | 0.368 ± 0.16 | 2.05 ± 0.025
39 | GUUCGG | 0.155 ± 0.11 | 2.003 ± 0.0021 | 0.178 ± 0.021 | 1.985 ± 0.0024
40 | CAACUU | – | 2.039 ± 0.012 | – | 2.03 ± 0.052
41 | CAACUA | – | 2.01 ± 0.023 | – | 2.01 ± 0.035
42 | CAACUG | – | 2.029 ± 0.015 | – | 2.021 ± 0.016
43 | CAACUC | – | 2.06 ± 0.015 | – | 2.06 ± 0.024
44 | AAAAUC | – | 2.051 ± 0.0098 | – | 2.01 ± 0.023
45 | AAAAUG | – | 1.935 ± 0.013 | – | 2.02 ± 0.024
